Test results reported in article PMC4860965, “A novel role for the tumour suppressor Nitrilase1 modulating the Wnt/β-catenin signalling pathway” (Cell Discovery, 2016).

Target: T1, GST-β-catenin (GST-β-cat (aa1–781)) (UniProt P35222 1-781)
T1 construct: β-catenin aa1–781; the cDNA may be mouse (surmise); source: E. coli XL1 blue or BL21-RE4, purified (glutathione-agarose)
T1 sequence (looked up): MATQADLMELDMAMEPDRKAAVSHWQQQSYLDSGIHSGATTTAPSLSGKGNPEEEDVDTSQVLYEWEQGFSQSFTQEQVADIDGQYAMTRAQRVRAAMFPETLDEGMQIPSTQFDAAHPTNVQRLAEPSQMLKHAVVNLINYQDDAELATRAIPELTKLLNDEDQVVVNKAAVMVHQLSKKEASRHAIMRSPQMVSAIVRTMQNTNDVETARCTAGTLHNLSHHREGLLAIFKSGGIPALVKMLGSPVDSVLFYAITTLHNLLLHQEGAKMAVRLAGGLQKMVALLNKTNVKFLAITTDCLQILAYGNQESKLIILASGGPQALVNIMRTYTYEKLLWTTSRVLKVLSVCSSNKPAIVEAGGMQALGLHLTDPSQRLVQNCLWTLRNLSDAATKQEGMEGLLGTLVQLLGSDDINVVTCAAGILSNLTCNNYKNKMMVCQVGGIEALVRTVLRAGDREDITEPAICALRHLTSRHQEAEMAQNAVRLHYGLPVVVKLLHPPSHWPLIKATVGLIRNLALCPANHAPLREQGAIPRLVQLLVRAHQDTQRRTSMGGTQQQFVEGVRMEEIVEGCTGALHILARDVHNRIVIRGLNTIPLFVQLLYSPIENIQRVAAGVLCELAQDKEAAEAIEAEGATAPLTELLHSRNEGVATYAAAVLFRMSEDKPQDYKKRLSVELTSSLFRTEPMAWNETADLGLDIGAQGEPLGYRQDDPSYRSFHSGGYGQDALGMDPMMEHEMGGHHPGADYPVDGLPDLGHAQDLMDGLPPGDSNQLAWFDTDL
Assay: pull-down; 4 μg GST or GST fusion protein with 5 μg MBP fusion protein, 150 mM NaCl, 20 mM imidazole or HEPES pH 8.0, 2 mM MgCl2, 300 mM sucrose, 0.25% Triton X-100, 20 min at 4 °C; glutathione-agarose beads; western blot with anti-MBP
Conditions: both partners purified

binding result: binds
B1: MBP-dNitFhit (natural protein, D. melanogaster, UniProt O76464 1-460, looked up)
chain: MSTLVNTTRRSIVIAIHQQLRRMSVQKRKDQSATIAVGQMRSTSDKAANLSQVIELVDRAKSQNACMLFLPECCDFVGESRTQTIELSEGLDGELMAQYRELAKCNKIWISLGGVHERNDQKIFNAHVLLNEKGELAAVYRKLHMFDVTTKEVRLRESDTVTPGYCLERPVSTPVGQIGLQICYDLRFAEPAVLLRKLGANLLTYPSAFTYATGKAHWEILLRARAIETQCFVVAAAQIGWHNQKRQSWGHSMIVSPWGNVLADCSEQELDIGTAEVDLSVLQSLYQTMPCFEHRRNDIYALTAYNLRSKEPTQDRPFATNIVDKRTIFYESEHCFAFTNLRCVVKGHVLVSTKRVTPRLCGLDCAEMADMFTTVCLVQRLLEKIYQTTSATVTVQDGAQAGQTVPHVHFHIMPRRLGDFGHNDQIYVKLDERAEEKPPRTIEERIEEAQIYRKFLTDIS
notes: Drosophila melanogaster NitFhit, amplified from the intronless genomic DNA; source: E. coli XL1 blue or BL21-RE4, purified (amylose resin)
